The record followed here is the RNAGym collection of RNA variant scans (doi:10.7554/elife.90254).

B1: LINE1-full (parent)
chain: UACGUAGGUGGUUUUCCCCUGAUAGUGCUAAGGGGGCCUGGAAGUUUGGACUGGGCAGAGCUCAACACAGCGUGGCAAAGUGGCUGUGGCUAGACUGCCUCUCUGGAUUCCUCGUCACUCAGCAGGGCAUCUCUGAGAGAAAUGCC

This data set covers variants of B1. As to the kind of experiment: self-cleavage, relative activity (ratio to wild type); higher = more cleavage; in vitro, sequencing; the parent is a self-cleaving ribozyme.
Take G4A A141G: the self-cleavage was found to be 0.89. The figure for A2G A64U is 0.88; for A2G A64G it is 0.39; for A2G A64C it is 0.59. The figure for C3U A22U is 0.99. The figure for C3U A22G is 0.95; for A2G G75A it is 0.7; for C3U U115C it is 1.03. Regarding C3U U115A, the self-cleavage was 0.72. The figure for C3U U87G is 0.32. The value for A2C A142G was 1.78; that for A2G G144A was 0.86; that for A2U A42U was 0.47.

For the variant G4A A107U, the self-cleavage was determined as 0.2. The value for C3A U87A was 0.1; that for A2G C19A was 1.24. Take A2U A50G: the self-cleavage came to 0.53. Take A2C G4U: the self-cleavage stood at 1.34.

For the variant A2G A77U, the self-cleavage turned out to be 0.79. The value for A2G U134G was 1.21. The figure for A2G U134C is 1.35; for C3U U46C it is 0.92. For A2G G89A, the self-cleavage was found to be 0.11. The figure for A2G U108C is 0.94. The value for A2G U108A was 1.02. As for C3U U119C, the self-cleavage was 1.14.

On to A2G G106U, for which the self-cleavage worked out at 1.04. Take U1C U26A: the self-cleavage came to 0.53. G4A C98A: the self-cleavage was found to be 0.19. The figure for A2U U15C is 1.19; for A2G A6U it is 0.53. For A2G U9C, the self-cleavage worked out at 0.83.

Turning to C3U U108C, the self-cleavage turned out to be 1.26. Regarding U1C U91C, the self-cleavage stood at 0.39. Consider A2G A43G, for which the self-cleavage is 0.87.

On to A2G U132C, for which the self-cleavage was found to be 1.04. The figure for U1C C38U is 0.71; for U1C C38A it is 0.55. The value for A2G U73A was 0.95. U1C G83A: the self-cleavage came to 0.74. The value for A2U A129G was 0.72; that for G4A A121C was 1.72; that for G4A A121U was 1.22. For the variant U1G A64G, the self-cleavage was found to be 0.46. As for A2G A142U, the self-cleavage was found to be 1.12. In the case of A2G A142G, the self-cleavage came to 0.93. The figure for C3G A57U is 0; for C3U U143G it is 0; for C3U U143A it is 0.41.

As for U1G A42U, the self-cleavage was found to be 0.28. As for A2U A30G, the self-cleavage was found to be 1.2.

As to A2G A57U, the self-cleavage was found to be 0.38. C3U C51G: the self-cleavage is 1.31. The figure for G4A A77G is 1.68.

With A2U A79U, the self-cleavage was determined as 1.37.

Consider C3U A43G, for which the self-cleavage is 0.95. The value for U1C A67G was 0.41; that for A2G U102G was 0; that for A2U C16U was 0.32. The figure for C3U A50U is 0.58; for U1C C99U it is 0.24; for A2C U119C it is 0.89. The value for U1C A69C was 0.07. Consider U1C A69U, for which the self-cleavage amounted to 0.04. As for U1C A69G, the self-cleavage is 0.42.

For U1C A65G, the self-cleavage was 0.07. The value for U1C A65U was 0.06; that for A2U G97A was 0.08; that for A2U U143C was 1.28. The value for U1C U102A was 0.25; that for A2G C3U was 0.65; that for A2U A57G was 0.6.

On to A2U A57C, for which the self-cleavage is 0.16. As for C3U A30G, the self-cleavage was 1.75. The value for A2G U23C was 0.69; that for A2U A138U was 1.01; that for A2G C71G was 0.42. As for C3U U109A, the self-cleavage came to 0.93. The figure for U1C A129G is 1.38; for C3U G41A it is 2.76. The figure for U1C U47A is 0.6; for U1C U47C it is 0.97; for A2U U132C it is 1.09. Take U1C A142G: the self-cleavage was found to be 0.99. The figure for A2G G36U is 0.67; for C3A G55C it is 0.07. Turning to A2U C111A, the self-cleavage turned out to be 0.68. Take U1C A50G: the self-cleavage was found to be 0.64. The value for A2G U81A was 0.74; that for C3U U29A was 1.07. The value for A2G U20C was 0.74; that for A2G U20A was 0.37; that for C3U A136G was 1.08. For A2G A117G, the self-cleavage came to 0.3.

For C3A U45G, the self-cleavage was 0.45. The figure for C3U A67C is 0.12; for C3U A67U it is 0.15; for U1G U52C it is 2.63. For U1G U132C, the self-cleavage worked out at 1.36. As for A2C U130C, the self-cleavage worked out at 1.19.

Turning to C3U C16U, the self-cleavage worked out at 0.76.

Take C3U U20C: the self-cleavage amounted to 0.44.

C3U G60U: the self-cleavage worked out at 0.07. Regarding A2G U12C, the self-cleavage is 0.96. Take A2U A107G: the self-cleavage is 1. The value for A2U A107U was 0.52; that for U1C C113A was 0.62; that for U1C U112C was 2.17. The value for U1C G86A was 0.06; that for A2U G127C was 1.16.

As to A2U A64G, the self-cleavage is 0.23. As to C3U C113A, the self-cleavage was found to be 1.15.

On to A2G U112A, for which the self-cleavage was found to be 0.09. The value for A2G U112G was 0.77; that for A2G U15A was 1; that for A2G U15C was 0.89. The figure for A2G A22G is 0.97.

With A2G A22U, the self-cleavage stood at 0.19.

U1C G114C: the self-cleavage is 2.19. The value for U1C U12C was 0.78. For the variant U1C U12G, the self-cleavage came to 0.84. The value for A2G G114A was 0.82; that for U1A U143A was 1.04; that for U1C A124G was 0.75.

Consider U1C G35C, for which the self-cleavage was determined as 1.26. For U1C G35A, the self-cleavage was 0.67. Turning to U1C A22U, the self-cleavage turned out to be 0.54.

As for U1C A22G, the self-cleavage worked out at 0.84. As for A2C U14A, the self-cleavage worked out at 1.16. Turning to U1A U130C, the self-cleavage came out at 1.46. The figure for A2G G35A is 1.2; for C3A U73A it is 0.64. A2G U91C: the self-cleavage came to 0.45.

As to A2G U87C, the self-cleavage was 0.35. On to A2G U5C, for which the self-cleavage was found to be 1.41. The figure for U1C A94G is 0.24. Take A2G U29G: the self-cleavage worked out at 1.09. Consider A2G U29A, for which the self-cleavage is 1.14.

In the case of C3U U85A, the self-cleavage came to 0.28. For A2C A65G, the self-cleavage was 0.12. U1A U104C: the self-cleavage was found to be 1.51. On to U1A U104A, for which the self-cleavage worked out at 1.2. The figure for A2C G93A is 0.03; for A2G C37G it is 0.87. C3U A59G: the self-cleavage was found to be 0.1.

Take U1G: the self-cleavage amounted to 0.87. As to U1C, the self-cleavage was 0.86. The figure for A2G A67G is 0.41; for A2G A67U it is 0.18.

As to U1G A30G, the self-cleavage was found to be 0.61. The value for U1A U108C was 0.77; that for A2G A79G was 0.87; that for A2G U109A was 0.65. C3U A78G: the self-cleavage came out at 0.37. For the variant C3U U62C, the self-cleavage is 0.15. In the case of A2G U85C, the self-cleavage is 0.48. The value for G4A A140C was 0.27.

Consider G4A A140G, for which the self-cleavage was 0.76. On to A2G A124G, for which the self-cleavage was 0.74. The figure for A2G A124U is 0.88. The figure for A2G A107G is 0.94; for U1C G36C it is 1.26. The figure for C3A A78G is 0.64. For U1C G25A, the self-cleavage came out at 0.72. On to A2C A50U, for which the self-cleavage came to 0.75. In the case of U1G G80A, the self-cleavage came to 0.75. The figure for U1C U29C is 1.1.
